The values that follow come from patent US5736294A, “Reagents and methods for modulating gene expression through RNA mimicry” (ISIS Pharmaceuticals, Inc., priority 1991, dated 1998).

The target in data set [1] is T1, HIV-1 Tat 25-mer peptide (tat25) (Human immunodeficiency virus 1, UniProt P69698 SEQ:1-25).
T1 chain: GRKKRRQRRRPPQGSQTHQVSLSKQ
As to the kind of experiment: EMSA; 1:1 KD; repeated in Table 4 under tat37 heading. The settings on record: protein: synthetic, tags: peptide fragment, label: 32P, hairpin, stem-bulge-loop.

The target in data set [2] is T1, HIV-1 Tat 25-mer peptide (tat25). In words: EMSA; 1:1 KD; repeated in Table 4. The settings on record: protein: synthetic, tags: peptide fragment, label: 32P, hairpin, stem-bulge-loop.
Data set [3] deals with T2, HIV-1 Tat 37-mer peptide (tat37) (Human immunodeficiency virus 1, UniProt P69698 SEQ:1-37).
T2 chain: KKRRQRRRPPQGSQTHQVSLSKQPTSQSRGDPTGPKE
In words: EMSA; 1:1 KD; 2-3:1 KD 8200 nM; Table 4 gives 60 nM; 4 C. The settings on record: protein: synthetic; tags: chemically synthesized peptide, RP HPLC purified (UCSF Biotechnology Resource Core); label: 32P; hairpin, stem-bulge-loop.

For the molecule GCCAGAUCUGAGCCUGGGAGCUCUCUGGC (ssRNA) [deltaTAR29 #3153 (16-45 -A17)], binding in data set [1] was characterised by a dissociation constant (Kd) of 17.3 nM.

Consider GCCAGAUCUGAGCCUGGGAGCUCUCUGGC (ssRNA, 2'-OMe throughout) [2'-OMe deltaTAR #2306 29-mer (16-45 -A17)], for which the results for the dissociation constant (Kd) in data set [2] and in data set [3] were 31.6 nM and 86.6 nM, respectively.

As a reminder, the Kd is the equilibrium constant for the complex coming apart. Lower therefore signals tighter binding.
